Data: patent publication US20210188980A1 (SHANGHAI EPIMAB BIOTHERAPEUTICS, published 2021)
Where a chain is given by its changes, count along the chain named. Blank lines part the entries; values can stand above or below the binder they belong to.

Tests used:
[1] = molecular target: T1, recombinant human LAG-3-his protein (Novoprotein) (human, UniProt P18627 23-450); experiment: BLI Octet, Ab on AHC sensor, huLAG-3-his; test group 2
T1 construct: Bought; also called huLAG-3; not shown: His tag
T1 sequence (looked up): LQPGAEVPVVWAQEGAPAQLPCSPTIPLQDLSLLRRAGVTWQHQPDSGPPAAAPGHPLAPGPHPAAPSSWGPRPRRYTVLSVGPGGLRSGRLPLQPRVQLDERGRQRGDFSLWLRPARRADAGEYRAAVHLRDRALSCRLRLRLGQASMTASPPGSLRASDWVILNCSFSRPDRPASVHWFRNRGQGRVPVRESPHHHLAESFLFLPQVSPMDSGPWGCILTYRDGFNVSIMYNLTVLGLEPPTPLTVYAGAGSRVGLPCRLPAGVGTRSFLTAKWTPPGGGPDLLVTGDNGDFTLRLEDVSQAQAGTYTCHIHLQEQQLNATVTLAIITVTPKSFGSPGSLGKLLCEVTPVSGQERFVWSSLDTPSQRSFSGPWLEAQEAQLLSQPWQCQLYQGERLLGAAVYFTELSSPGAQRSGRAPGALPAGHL
Description: (§1) All 9 humanized antibodies (Table 25) and a chimeric antibody having the parental murine VH and VL domains (mAb747c) were ranked by dissociation rate constant (koff). Briefly, antibodies were characterized for affinities and binding kinetics by Octet RED96 biolayer interferometry (Pall FortéBio LLC). Antibodies were captured by Anti-HIgG Fc Capture (AHC) Biosensors (Pall) at a concentration of 100 nM for 30 seconds. Sensors were then dipped into running buffer (1× pH7.2 PBS, 0.05% Tween 20, 0.1% BSA) for 60 seconds to check baseline. Binding was measured by dipping sensors into a single concentration of recombinant human LAG-3-his protein (Novoprotein). Dissociation was followed by dipping sensors into running buffer for 1200 seconds. The association and dissociation curves were fitted to a 1:1 Langmuir binding model using FortéBio Data Analysis software (Pall).
(§2) The seven Fab clones were converted to full IgG proteins. Briefly, the VH and VL genes were produced synthetically and then cloned into vectors containing coding sequences for the human IgG1 and human kappa constant domains, respectively. The heavy chain and cognate light chain plasmids were co-transfected into HEK 293E cells, individually. After approximately six days of post-transfection cell culture, the supernatants were harvested and subjected to Protein A affinity chromatography. The affinity of purified antibodies was ranked by Octet® RED96 biolayer interferometry (see, Example 9.1, supra).

[2] = molecular target: T1, recombinant human LAG-3-his protein …; experiment: BLI Octet, Ab on AHC sensor, huLAG-3-his; test group 4
Description: as §1, with “All 18” for “All 9”, “(Table 34)” for “(Table 25)”, “by Octet®RED96” for “by Octet RED96”, “(Pall ForteBio” for “(Pall FortéBio”, “by Anti-hIgG” for “by Anti-HIgG”, “(Pall). In each test group, the off-rates of antibodies were able to be compared with that of mAb747c. The off-rate ratios were calculated by the off-rate of antibody to that of mAb747c of its group and were compared all together. The lower the ratio was, the higher was the affinity of the antibody.” for “(Pall).”

[3] = molecular target: T1, recombinant human LAG-3-his protein …; experiment: BLI Octet, Ab on AHC sensor, huLAG-3-his; test group 2; remark: listed apart in the source
Description: as §1, with “All 18” for “All 9”, “(Table 34)” for “(Table 25)”, “by Octet®RED96” for “by Octet RED96”, “(Pall ForteBio” for “(Pall FortéBio”, “by Anti-hIgG” for “by Anti-HIgG”, “(Pall). In each test group, the off-rates of antibodies were able to be compared with that of mAb747c. The off-rate ratios were calculated by the off-rate of antibody to that of mAb747c of its group and were compared all together. The lower the ratio was, the higher was the affinity of the antibody.” for “(Pall).”

[4] = molecular target: T1, recombinant human LAG-3-his protein …; experiment: BLI Octet, Ab on AHC sensor, huLAG-3-his; test group 1
Description: as §1
(§3) All 13 humanized antibodies (Table 39) and chimeric anti-LAG-3 antibody mAb747c having the parental murine VH and VL domains were ranked by dissociation rate constant (koff) in the same manner described in Example 9.1 supra. In each test group, the off-rates of antibodies were able to be compared with that of mAb747c. The off-rate ratios were calculated by the off-rate of antibody to that of mAb747c of its group and were compared all together. The lower the ratio was, the higher was the affinity of the antibody.

[5] = molecular target: T1, recombinant human LAG-3-his protein …; experiment: BLI Octet, Ab on AHC sensor, huLAG-3-his; test group 3
Description: as §1, §3

[6] = molecular target: T1, recombinant human LAG-3-his protein …; experiment: BLI Octet, Ab on AHC sensor, huLAG-3-his; test group 2; remark: listed apart in the source
Description: as §1, §3

[7] = molecular target: T1, recombinant human LAG-3-his protein …; experiment: BLI Octet, Ab on AHC sensor, huLAG-3-his; test group 1; remark: listed apart in the source
Description: as §1, with “All 18” for “All 9”, “(Table 34)” for “(Table 25)”, “by Octet®RED96” for “by Octet RED96”, “(Pall ForteBio” for “(Pall FortéBio”, “by Anti-hIgG” for “by Anti-HIgG”, “(Pall). In each test group, the off-rates of antibodies were able to be compared with that of mAb747c. The off-rate ratios were calculated by the off-rate of antibody to that of mAb747c of its group and were compared all together. The lower the ratio was, the higher was the affinity of the antibody.” for “(Pall).”

[8] = molecular target: T1, recombinant human LAG-3-his protein …; experiment: BLI Octet, Ab on AHC sensor, huLAG-3-his; test group 3; remark: listed apart in the source
Description: as §1, with “All 18” for “All 9”, “(Table 34)” for “(Table 25)”, “by Octet®RED96” for “by Octet RED96”, “(Pall ForteBio” for “(Pall FortéBio”, “by Anti-hIgG” for “by Anti-HIgG”, “(Pall). In each test group, the off-rates of antibodies were able to be compared with that of mAb747c. The off-rate ratios were calculated by the off-rate of antibody to that of mAb747c of its group and were compared all together. The lower the ratio was, the higher was the affinity of the antibody.” for “(Pall).”

[9] = molecular target: T1, recombinant human LAG-3-his protein …; experiment: BLI Octet, Ab on AHC sensor, huLAG-3-his analyte
Description: as §1

[10] = molecular target: T1, recombinant human LAG-3-his protein …; experiment: BLI Octet, Ab on AHC sensor, huLAG-3-his; test group 1; remark: listed apart in the source
Description: as §1, §2

[11] = molecular target: T2, human LAG-3 ECD/Fc fusion protein (human); experiment: SPR Biacore, HuLAG-3 ECD/Fc on chip, Ab analyte
T2 construct: also called HuLAG-3 ECD/Fc

[12] = molecular target: T2, human LAG-3 ECD/Fc fusion protein; experiment: SPR Biacore, HuPD-1 ECD/Fc and HuLAG-3 ECD/Fc both on chip, Ab analyte
[13] = molecular target: T3, human PD-1 expressed on cells (human, UniProt Q15116 25-288); experiment: cell RBA FACS, CHO-K1-huPD1; competitor biotin-PD-L1/Fc
T3 construct: whole, on cells; also called CHO-K1/huPD-1; CHO-K1-hPD-1 cells
T3 sequence (Q15116 25-288): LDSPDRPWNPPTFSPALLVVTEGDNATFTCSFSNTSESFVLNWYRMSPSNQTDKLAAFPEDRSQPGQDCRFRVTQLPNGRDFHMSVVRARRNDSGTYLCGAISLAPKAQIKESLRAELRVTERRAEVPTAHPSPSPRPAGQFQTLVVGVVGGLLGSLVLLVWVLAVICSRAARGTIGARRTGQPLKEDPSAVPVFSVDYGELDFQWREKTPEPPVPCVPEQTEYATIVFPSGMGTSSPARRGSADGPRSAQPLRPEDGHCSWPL
Description: (§4) All 15 humanized antibodies and the chimeric antibody (mAb709c) were characterized by binding ELISA and cell-based RBA. For cell-based RBA, 2×10⁵ cells/well of CHO-K1-huPD1 cells were added to a pre-blocked 96-well round-bottomed plate and after washing, 50 μl antibodies with diluted concentration ranging from 0.064 nM to 200 nM were added to each well. Next, 50 μl of 60 μg/ml biotinylated PD-L1/Fc or biotinylated PD-L2/Fc protein were added. After gentle mixing and incubation at 4° C., the cells were washed and stained by Alexa Fluor™ 488 streptavidin solution (1:1000, ThermoFisher Scientific; Cat. No. S32354). Signals were readout by FACS and curves were fitted by GraphPad software. […] The association and dissociation rate constants, k (M⁻¹ s⁻¹) and koff(s⁻¹), respectively, were determined by making kinetic binding measurements at five different concentrations of human PD-1-His protein at a continuous flow rate of 30 μl/min. The equilibrium dissociation constant KD (M) of the reaction between antibodies and related target proteins was calculated from the kinetic rate constants using the formula KD=koff/kₒₙ. HumAb709-8 had minimal back-mutation(s) while maintaining to the greatest extent the affinity of the parental variable domains on chimeric mAb709c.

[14] = molecular target: T3, human PD-1 expressed on cells; experiment: cell RBA FACS, CHO-K1-huPD1; competitor biotin-PD-L2/Fc
Description: as §4

[15] = molecular target: T4, human PD-1-His protein (human, UniProt Q15116 25-167, limits assumed); experiment: SPR Biacore, Ab captured, huPD-1-His analyte
T4 construct: also called huPD-1; not shown: His tag
T4 sequence (Q15116 25-167 limits assumed): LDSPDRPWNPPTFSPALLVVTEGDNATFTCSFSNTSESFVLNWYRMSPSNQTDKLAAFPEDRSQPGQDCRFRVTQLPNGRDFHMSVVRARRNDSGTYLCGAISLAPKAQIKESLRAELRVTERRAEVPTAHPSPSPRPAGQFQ
Description: as §4

[16] = molecular target: T5, human PD-1 ECD/Fc fusion protein (human); experiment: SPR Biacore, HuPD-1 ECD/Fc on chip, Ab analyte
T5 construct: also called huPD-1/Fc; HuPD-1 ECD/Fc
T5 sequence (chain, as listed by the source limits assumed): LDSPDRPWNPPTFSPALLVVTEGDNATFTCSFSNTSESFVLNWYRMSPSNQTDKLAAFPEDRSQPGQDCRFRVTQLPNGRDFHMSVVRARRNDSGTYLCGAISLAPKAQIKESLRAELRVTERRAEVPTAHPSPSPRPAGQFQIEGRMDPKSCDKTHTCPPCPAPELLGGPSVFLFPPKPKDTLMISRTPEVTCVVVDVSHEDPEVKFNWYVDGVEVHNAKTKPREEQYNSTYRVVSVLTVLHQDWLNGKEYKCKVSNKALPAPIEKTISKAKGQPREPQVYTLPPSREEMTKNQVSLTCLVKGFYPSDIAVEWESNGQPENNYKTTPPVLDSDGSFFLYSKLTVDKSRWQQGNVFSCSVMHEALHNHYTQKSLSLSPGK

[17] = molecular target: T5, human PD-1 ECD/Fc fusion protein; experiment: SPR Biacore, HuPD-1 ECD/Fc and HuLAG-3 ECD/Fc both on chip, Ab analyte

koff [1]: 0.00163 s⁻¹
off-rate ratio to that of mAb747c [1]: 100%
koff [2]: 0.00053 s⁻¹
off-rate ratio to that of mAb747c [2]: 100%
koff [3]: 0.00135 s⁻¹
off-rate ratio to that of mAb747c [3]: 100%
koff [4]: 0.000615 s⁻¹
off-rate ratio to that of mAb747c [4]: 100%
koff [5]: 0.000631 s⁻¹
off-rate ratio to that of mAb747c [5]: 100%
koff [6]: 0.000676 s⁻¹
off-rate ratio to that of mAb747c [6]: 100%
koff [7]: 0.00136 s⁻¹
off-rate ratio to that of mAb747c [7]: 100%
koff [8]: 0.00123 s⁻¹
off-rate ratio to that of mAb747c [8]: 100%
koff [9]: 0.000377 s⁻¹
koff [10]: 0.0015 s⁻¹
off-rate ratio to that of mAb747c [10]: 100%
B1: mAb747c (antibody, V domains shown)
VH: EVQLQQSGAELVRPGASVKLSCTASDFNIKDDYMHWVKQRPEQGLDWIGWIVPENGNTEYASKFQGKATITADTSSNTAYLQLSSLTSEDTAVYYCTVYGDYWGQGTTLTVSS
VL: DIQMTQSPSSLSASLGERVSLNCRASQEISGYLSWLQQKPDGTIKRLIYAASTLDSGVPKRFSGSRSGSDYSLTISSLESEDFAAYYCLQYASYPLTFGAGTKLELK
notes: also called mAb717c

Kd [11]: 32.5 nM
koff [11]: 0.000181 s⁻¹
kon [11]: 5580 M⁻¹ s⁻¹
Kd [12]: 16.2 nM
koff [12]: 0.000154 s⁻¹
kon [12]: 9510 M⁻¹ s⁻¹
B2: mAb746c (antibody, V domains shown)
VH: B1 VH
VL: B1 VL with P40S, A85D

IC50 [13]: 0.62 nM
IC50 [14]: 0.56 nM
Kd [15]: 0.567 nM
koff [15]: 6.88e-05 s⁻¹
kon [15]: 121000 M⁻¹ s⁻¹
Kd [16]: 0.035 nM
koff [16]: 8.82e-06 s⁻¹
kon [16]: 252000 M⁻¹ s⁻¹
Kd [17]: 0.0337 nM
koff [17]: 9.72e-06 s⁻¹
kon [17]: 288000 M⁻¹ s⁻¹
B3: mAb709c (antibody, V domains shown)
VH: EVKLVESGGGLVKPGGSLKLSCAASGFTFSFYTMSWVRQTPEKRLEWVATISGGGRDTYYPDSVKGRFTISRDNAKNTLYLHMSSLRSEDTALYYCAGQGGNYLFAYWGQGTLVTVSA
VL: DIVMTQSHKFMSTSVGDSVTITCKASQDVNTVVAWYQQKPGQSLKVLISWASTRHTGVPARFTGSGSGTDYTLTISSVQAEDLALYYCQQHYTTPYTFGGGTQLEIK
notes: also called HumAb709c

Continued, binder first:

B4: HumAb747V-73 (antibody, human IgG1, V domains shown)
VH: EVQLVQSGAEVKKPGATVKLSCTASGFNIKDDYMHWVKQRPEQGLDWIGWIVPRNGNTVYASKFQGKATITADTSTNTAYLELSSLRSEDTAVYYCTVYGDYWGQGTTVTVSS
VL: DIQMTQSPSSLSASVGDRVTITCRASQEISGYLSWLQQKPGGAIKRLIYAASTLDSGVPSRFSGSRSGSDYTLTISSLQPEDFADYYCLQYASYPLTFGQGTKLELK
notes: engineered HumAb747-60 variant; human IgG1/kappa constant domains
koff [5]: 0.000321 s⁻¹
off-rate ratio to that of mAb747c [5]: 51%

B5: HumAb747-39 (antibody, human IgG1, V domains shown)
VH: EVQLVQSGAEVKKPGASVKVSCKASDFNIKDDYMHWVRQAPGQGLEWIGWIVPENGNTEYASKFQGRVTITADTSINTAYMELSRLRSDDTAVYYCTVYGDYWGQGTTVTVSS
VL: B4 VL with T22N, G41E, A43T, D85T, Q100G, L104V, L106I
notes: humanized mAb747; human IgG1 and human kappa constant domains
koff [1]: 0.00391 s⁻¹
off-rate ratio to that of mAb747c [1]: 240%
koff [9]: 0.00114 s⁻¹

B6: HumAb747-42 (antibody, human IgG1, V domains shown)
VH: B5 VH with R67K, V68A
VL: B4 VL with T22N, G41E, A43T, D85T, Q100G, L104V, L106I
notes: as for B5
koff [1]: 0.00428 s⁻¹
off-rate ratio to that of mAb747c [1]: 263%
koff [9]: 0.00083 s⁻¹
off-rate constant, fold of the chimeric control mAb747c [9]: 2.2 fold
